Measurements reported in PMC4975481.

B1: DSTL096 (VHH)
VHH: RVDQTPRSVTKETGESLTINCVLRDASYAVGSTCWYRKKSGSTNEESISKGGRYVETVNSGSKSFSLRINDLTVEDGGTYRCGVSTYNWCGVRGLGCVHGACGDGTAVTVN
B2: SK to RI (VHH)
VHH: TRVDQTPRTATKETGESLTINCVLRDASYAVGSTCWFRKNPGTTDEERISIGGRYVESVNKGAKSFSLRIKDLTVADSATYYCGVSTYNWCGVRGLGCVHGACGDGTALTVK
B3: E to W (VHH)
VHH: TRVDQTPRTATKETGESLTINCVLRDASYAVGSTCWFRKNPGTTDWESISKGGRYVESVNKGAKSFSLRIKDLTVADSATYYCGVSTYNWCGVRGLGCVHGACGDGTALTVK
B4: EK to WI (VHH)
VHH: TRVDQTPRTATKETGESLTINCVLRDASYAVGSTCWFRKNPGTTDWESISIGGRYVESVNKGAKSFSLRIKDLTVADSATYYCGVSTYNWCGVRGLGCVHGACGDGTALTVK
B5: SP15-096-13 (VHH)
VHH: TRVDQTPRTATKETGESLTINCVLRDASYAVGSTCWFRKNPGTTDWERISIGGRYVESVNKGAKSFSLRIKDLTVADSATYYCGVSTYNWCGVRGLGCVHGACGDGTALTVK
B6: K to I (VHH)
VHH: TRVDQTPRTATKETGESLTINCVLRDASYAVGSTCWFRKNPGTTDEESISIGGRYVESVNKGAKSFSLRIKDLTVADSATYYCGVSTYNWCGVRGLGCVHGACGDGTALTVK
B7: ES to WR (VHH)
VHH: TRVDQTPRTATKETGESLTINCVLRDASYAVGSTCWFRKNPGTTDWERISKGGRYVESVNKGAKSFSLRIKDLTVADSATYYCGVSTYNWCGVRGLGCVHGACGDGTALTVK
B8: S to R (VHH)
VHH: TRVDQTPRTATKETGESLTINCVLRDASYAVGSTCWFRKNPGTTDEERISKGGRYVESVNKGAKSFSLRIKDLTVADSATYYCGVSTYNWCGVRGLGCVHGACGDGTALTVK
B9: SP15-096-123 (VHH)
VHH: TRVDQTPRTATKETGESLTINCVLRDASYAVGSTCWFRKNPGTTDEESISKGGRYVESVNKGAKSFSLRIKDLTVADSATYYCGVSTYNWCGVRGLGCVHGACGDGTALTVK

Each binder was assayed against Ebola virus nucleoprotein, recombinant construct consisting of the C-terminal portion of NP (Ebola virus (EBOV; formerly the Zaire ebolavirus)) (assay: SPR; ProteOn XPR36; […] (10 mM acetate pH 5.0); […]; Langmuir model).
Ebola virus nucleoprotein, recombinant construct consisting of the C-terminal portion of NP (Ebola virus (EBOV; formerly the Zaire ebolavirus)), sequence (P18272 641-739 limits assumed): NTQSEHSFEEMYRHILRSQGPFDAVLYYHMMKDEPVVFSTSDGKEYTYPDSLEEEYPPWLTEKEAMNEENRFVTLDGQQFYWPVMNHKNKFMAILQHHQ

**Q.** B1 was tested. Which Kd did it give?
**A.** 0.39 nM

**Q.** How did the Kd turn out when B2 was run?
**A.** 22 nM

**Q.** B3 was tested. Which Kd did it give?
**A.** 0.34 nM

**Q.** How did the Kd turn out when B4 was run?
**A.** 3.6 nM

**Q.** With B5 as the binder, how does the Kd read?
**A.** 27 nM

**Q.** Which Kd does the source give for B6 here?
**A.** 2.2 nM

**Q.** Which Kd does the source give for B7 here?
**A.** 12 nM

**Q.** Which Kd does the source give for B8 here?
**A.** 2.3 nM

**Q.** With B9 as the binder, how does the Kd read?
**A.** 0.37 nM
